Assay results taken from PMC8860586, “Vimentin binds to G-quadruplex repeats found at telomeres and gene promoters”.

Legend:
Vimentin [1] = target: T1, Vimentin (Homo sapiens, UniProt P08670 2-466); assay: EMSA; 150 mM KCl, pH 8.4; 5 mM Tris-HCl pH 8.4, 150 mM KCl; FA 5 nM DNA at 25 C; EMSA 500 nM DNA + 8 uM vimentin, 1 h room temperature, 1.5% agarose 0.5x TBE + 10 mM KCl, run at 4 C; conditions: protein: commercial, chain copies: 4
Vimentin [2] = target: T1, Vimentin; assay: EMSA; 150 mM KCl, pH 8.4; Job plot max 0.1 DNA fraction, two tetramers per DNA; 5 mM Tris-HCl pH 8.4, 150 mM KCl; FA 5 nM DNA at 25 C; EMSA 500 nM DNA + 8 uM vimentin, 1 h room temperature, 1.5% agarose 0.5x TBE + 10 mM KCl, run at 4 C; conditions: protein: commercial; chain copies: 4; four adjacent G4s
Vimentin [3] = target: T1, Vimentin; assay: fluorescence anisotropy; 150 mM KCl, pH 8.4, 25 C; tetramer concentration, 1:1 fit; 5 mM Tris-HCl pH 8.4, 150 mM KCl; FA 5 nM DNA at 25 C; EMSA 500 nM DNA + 8 uM vimentin, 1 h room temperature, 1.5% agarose 0.5x TBE + 10 mM KCl, run at 4 C; conditions: protein: commercial; chain copies: 4; label: 5'-6-FAM; two adjacent G4s
Vimentin [4] = target: T1, Vimentin; assay: EMSA; 150 mM KCl, pH 8.4; two complexes; 5 mM Tris-HCl pH 8.4, 150 mM KCl; FA 5 nM DNA at 25 C; EMSA 500 nM DNA + 8 uM vimentin, 1 h room temperature, 1.5% agarose 0.5x TBE + 10 mM KCl, run at 4 C; conditions: protein: commercial; chain copies: 4; three adjacent G4s
Vimentin [5] = target: T1, Vimentin; assay: EMSA; no KCl, pH 8.4; 5 mM Tris-HCl pH 8.4, 150 mM KCl; FA 5 nM DNA at 25 C; EMSA 500 nM DNA + 8 uM vimentin, 1 h room temperature, 1.5% agarose 0.5x TBE + 10 mM KCl, run at 4 C; conditions: protein: commercial; chain copies: 4; unfolded single strand

T1 sequence (P08670 2-466): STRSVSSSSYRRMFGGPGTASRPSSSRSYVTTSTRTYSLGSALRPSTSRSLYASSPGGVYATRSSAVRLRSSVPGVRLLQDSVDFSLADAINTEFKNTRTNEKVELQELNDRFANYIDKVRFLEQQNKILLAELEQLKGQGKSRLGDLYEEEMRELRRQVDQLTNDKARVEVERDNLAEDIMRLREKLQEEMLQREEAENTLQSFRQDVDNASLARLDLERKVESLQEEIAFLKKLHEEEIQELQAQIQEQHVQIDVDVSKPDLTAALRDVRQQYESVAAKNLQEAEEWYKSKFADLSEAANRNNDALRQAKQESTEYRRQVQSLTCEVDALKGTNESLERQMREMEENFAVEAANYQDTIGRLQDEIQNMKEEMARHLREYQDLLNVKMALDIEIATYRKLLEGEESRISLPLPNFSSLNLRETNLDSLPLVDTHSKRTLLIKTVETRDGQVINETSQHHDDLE

B1: ILPR (structured_DNA)
DNA: ACAGGGGTGTGGGGACAGGGGTGTGGGGACAGGGGTGTGGGGACAGGGGTGTGGGG
binding result (Vimentin [1]; G4 repeat): binds

B2: 4TEL (structured_DNA)
DNA: TTAGGGTTAGGGTTAGGGTTAGGGTTAGGGTTAGGGTTAGGGTTAGGGTTAGGGTTAGGGTTAGGGTTAGGGTTAGGGTTAGGGTTAGGGTTAGGG
binding result (Vimentin [2]): binds

TTAGGGTTAGGGTTAGGGTTAGGGTTAGGGTTAGGGTTAGGGTTAGGG (structured_DNA) [FAM-2TEL]
Kd (Vimentin [3]): 25.7 ± 2.4 nM

GGCGAGGAGGGGCGTGGCCGGC (structured_DNA) [KIT*]
binding result (Vimentin [1]; single G4): no binding

B3: 3TEL (structured_DNA)
DNA: TTAGGGTTAGGGTTAGGGTTAGGGTTAGGGTTAGGGTTAGGGTTAGGGTTAGGGTTAGGGTTAGGGTTAGGG
binding result (Vimentin [4]): binds

CGGGCGGGCGCGAGGGAGGGGAGGCGAGGAGGGGCGTGGCCGGC (structured_DNA) [KIT2KIT*]
binding result (Vimentin [1]; two adjacent G4s): binds

CGGGCGGGCGCGAGGGAGGGG (structured_DNA) [KIT2]
binding result (Vimentin [1]; single G4): no binding

TGGCCCTGGTGGGCGGAGGCAAAGGGGGAGCCAGGGGCGGAGAAAGGGT (ssDNA) [G-rich noG4]
binding result (Vimentin [5]): binds

TTAGGGTTAGGGTTAGGGTTAGGG (structured_DNA) [TEL]
binding result (Vimentin [1]; single G4): no binding

B4: hTERT (structured_DNA)
DNA: GGGGAGGGGCTGGGAGGGCCCGGAGGGGGCTGGGCCGGGGACCCGGGAGGGGTCGGGACGGGGCGGGG
binding result (Vimentin [1]; G4 repeat): binds
